In experiment [1] the target is T1, Human TIGIT expressed on the surface of cells (human, UniProt Q495A1 22-244).
T1 construct: also called human TIGIT expressed on the surface of CHO cells; human TIGIT overexpressed on CHO cells
T1 sequence: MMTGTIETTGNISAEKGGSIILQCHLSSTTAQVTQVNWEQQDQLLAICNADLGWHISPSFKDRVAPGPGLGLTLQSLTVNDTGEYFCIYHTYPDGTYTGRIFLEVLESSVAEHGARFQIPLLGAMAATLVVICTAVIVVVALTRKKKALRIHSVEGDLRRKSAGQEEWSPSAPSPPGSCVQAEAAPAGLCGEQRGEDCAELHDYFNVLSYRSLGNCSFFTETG
Nature of the experiment: flow cytometry competition against 50 nM human CD155-mouse IgG2a Fc on CHOS cells expressing human TIGIT; positive control. A general note: Flow cytometry measures light scatter and fluorescence of single cells or particles in a stream.

Experiment [2] deals with T1, Human TIGIT expressed on the surface of …. Nature of the experiment: flow cytometry on CHOS cells expressing human TIGIT; reference antibody.
For experiment [3] the target is unchanged. Nature of the experiment: flow cytometry on CHO cells overexpressing human TIGIT; reference antibody in the run with CHO-expressed antibodies.
For experiment [4], the target named is T2, Human TIGIT-his (ACRO, TIT-H52H3) (human, UniProt Q495A1 22-141).
T2 construct: Bought protein
T2 sequence: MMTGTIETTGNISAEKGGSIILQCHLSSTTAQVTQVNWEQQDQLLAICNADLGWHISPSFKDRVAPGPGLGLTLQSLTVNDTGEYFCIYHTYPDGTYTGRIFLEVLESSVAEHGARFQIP
The experiment is described as follows: BLI (ForteBio), antibody loaded on AHQ sensor, 100 nM TIGIT-his, 1:1 model, monovalent. In general terms: Biolayer interferometry detects binding as a change in optical thickness at a sensor tip.

Experiment [5] deals with T3, Monkey TIGIT-his (ACRO, TIT-05223) (monkey).
T3 construct: Bought protein
The experiment is described as above.

Experiment [6] addresses T1, Human TIGIT expressed on the surface of …. The experiment is described as follows: flow cytometry competition against 50 nM human CD155-mouse IgG2a Fc on CHOS cells expressing human TIGIT; positive control. This is another data set of the same source.
Experiment [7] has the same target. The experiment is described as follows: cell-based or functional assay.
For experiment [8] the target is unchanged. Nature of the experiment: cell-based or functional assay. This is another data set of the same source.

Here are results for 2 molecules from US20210040201A1 (Innovent, published 2021).

Like-named read-outs stand apart in the source and are kept apart here.

B1: 22G2 (anti-human TIGIT reference antibody from BMS) (antibody, V domains shown)
VH: QVHLQESGPGLVKPSETLSLTCTVSGGSVSSGIYYWSWIRQPPGKGLEWIGYIYYSGSTNYNPSLKSRVTISVDTSKNQFSLKLSSVTAADTAVYYCARDYYVSGNYYNVDYYFFGVDVWGQGTTVTVSS
VL: EIVLTQSPATLSLSPGERATLSCRASQSVSSYLAWYQQKPGQAPRLLIYDASNRATGIPARFSGSGSGTDFTLTISSLEPEDFAVYYCQQRSNWPPLFTFGPGTKVDIK
B1: the IC50 in experiment [1] turned out to be 0.179 nM; in experiment [6] it was 0.607 nM. Besides, the half-maximal effective concentration (EC50) was determined as 0.511 nM in experiment [2] and 0.725 nM in experiment [3]. Further, the Kd worked out at 3.5 nM in experiment [4] and 4.2 nM in experiment [5]. The “EC50, MOA-based assay (luciferase reporter under IL2 promoter)” value in experiment [7] amounted to 2.11 nM.

B2: 31C6 (anti-human TIGIT reference antibody from Merck) (antibody, V domains shown)
VH: EVQLVQSGAEVKKPGASVKVSCKASGYTFSSYVMHWVRQAPGQGLEWIGYIDPYNDGAKYAQKFQGRVTLTSDKSTSTVYMELSSLRSEDTAVYYCARGGPYGWYFDVWGQGTTVTVSS
VL: DIQMTQSPSSLSASVGDRVTITCRASEHIYSYLSWYQQKPGKAPKLLIYNAKTLAEGVPSRFSGSGSGTDFTLTISSLQPEDFATYYCQHHFGSPLTFGQGTRLEIK
As for B2, the IC50 was 0.154 nM in experiment [1] and 0.166 nM in experiment [6]. For the same molecule, the EC50 in experiment [2] turned out to be 0.436 nM; in experiment [3] it was 0.185 nM. In addition, in experiment [8], the “EC50, MOA-based assay (luciferase reporter under IL2 promoter), positive control in the run with CHO-expressed antibodies” value is 0.342 nM. For the same molecule, the Kd was 2.34 nM in experiment [4] and 0.472 nM in experiment [5]. For the same molecule, the “EC50, MOA-based assay (luciferase reporter under IL2 promoter)” value in experiment [7] is 0.838 nM.

The term IC50 denotes the concentration needed to halve the response being measured. A word on the EC50: it is the concentration needed to bring the measured effect to its halfway point. One may read the Kd as the free concentration of one partner at which half of the binding sites on the other are occupied at equilibrium, for simple one-to-one binding.
